{
  "source": "paper PMC6128652",
  "about": "“Structure of the Cladosporium fulvum Avr4 effector in complex with (GlcNAc)6 reveals the ligand-binding mechanism and uncouples its intrinsic function from recognition by the Cf-4 resistance protein” (PLoS Pathogens, 2018)",
  "key": {"[1]": {"tested_on": "tomato leaves of cv Moneymaker (–Cf-4)", "experiment": "Pure protein infiltrations into tomato leaves of cv Moneymaker (–Cf-4), hypersensitive response", "format": "in vivo", "method": "Tomato seeds were obtained from the Tomato Genetic Resource Center (TGRC) at UC Davis. WT-CfAvr4 and mutants thereof with single point mutations at selected amino acids were produced and purified from E. coli Rosetta-gami B cells as description above. Proteins were infiltrated at a concentration of 5 μg/mL and 10 μg/mL into the back side of MM or Purdue 135 tomato leaves using a one mL syringe and the HR response was recorded at 6 days post-infiltrations."}, "[2]": {"tested_on": "Cf-4", "experiment": "Agrobacterium tumefaciens transient transformation assay (ATTA): co-expression with Cf-4 in Nicotiana benthamiana leaves", "format": "in vivo", "details": "N. benthamiana, three cell density ratios 0.5:1, 1:1, 2:1", "method": "The Agrobacterium tumefaciens transient transformation assay (ATTA) was used for the transient co-expression into leaves of Nicotiana benthamiana of Cf-4 with the WT-CfAvr4 and the mutants thereof tested in this study. Briefly, N. benthamiana plants were grown in a growth chamber with 16 h of artificial light and 70% humidity, at 25°C for 4 weeks. The true mature form of the WT-CfAvr4 (i.e. between Lys30-Gln115) and of the mutants thereof were singly cloned into the binary expression vector pICH47742 downstream of the PR1A signal sequence of Nicotiana tabacum for targeted secretion into the apoplast, and under the control of CaMV 35S promoter and NOS terminator. The tomato Cf-4 was cloned into pMOG800 as descripted before. Binary vector plasmids were transformed into A. tumefaciens strain GV3101 by electroporation. For the ATTA assay, agrobacteria transformed with pMOG800:Cf-4 was grown in 10mL LB-mannitol medium (LB medium with 10 g/L mannitol) amended with 50 μg/mL kanamycin and 25 μg/mL rifampicin, whereas agrobacteria transformed with pICH47742:WT-CfAvr4 or pICH4774:CfAvr4-mutants were grown in LB-mannitol amended with 100 μg/mL carbenicillin and 25 μg/mL rifampicin. All cultures were incubated at 28°C for 2 days, after which period they were pelleted at 2800g for 15 min, re-suspended in MMAi medium (5 g/L Murashige and Skoog basal salts, 20 g/L sucrose, 10 mM MES, and […]) at an optical cell density (A600) of 2.0, and further incubated for 2–4 h at room temperature. Agroinfiltrations were performed by mixing agrobacteria containing pMOG800:Cf-4 with agrobacteria containing pICH47742_WT-CfAvr4 or pICH47742:CfAvr4-mutants at three different ratios of optical cell densities, i.e. A6000.5:A6001.0, A6000.5:A6000.5, and A6000.5:A6000.25 of. The mixture of agrobacteria was infiltrated into the leaves of N. benthamiana plants using a 1 mL syringe and the induction of an HR in the infiltrated leaf sectors was evaluated at 5 days post-infiltrations. Control infiltrations were made using only the pMOG800:Cf-4 transformed agrobacteria and the agrobacteria containing pICH47742:CfAvr4 or the mutants thereof without mixing the two cultures, at cell densities of A6000.25, A6000.5, and A6001.0."}, "[3]": {"tested_on": "subtilisin", "experiment": "Subtilisin treatment (resistance against proteolytic degradation)", "format": "in vitro ADME", "parameters": "key to Stability (Subtilisin assay): S: stable; PU: partially unstable", "details": "500 ng/μL subtilisin, 30 min, room temperature", "method": "The WT-CfAvr4 and selected mutants thereof were exposed to the non-specific protease subtilisin in order to determine their resistance against proteolytic degradation. Treatments with subtilisin were made as previously described with minor modifications. Briefly, 40 μM of the E. coli-produced CfAvr4 and the selected CfAvr4 mutants were mixed with 10 mM of calcium chloride and 500 ng/μL of subtilisin (Sigma-Aldrich) in a total volume of 15 μL. Samples were incubated for 30 min at room temperature, after which period they were denatured by mixing with 10 mM PMSF and SDS-PAGE loading buffer, and heating at 98°C for 10 min. Digestion products were visualized on an SDS-PAGE after staining with Coomassie blue."}, "[4]": {"experiment": "Isothermal titration calorimetry (ITC) of CfAvr4 variants with chitin hexasaccharide", "format": "binding", "details": "compared with PfAvr4", "method": "A stock solution of the monomer of N-acetylglucosamine was prepared by dissolving the dry powder in a buffer containing 10 mM Bis-Tris, pH 6.5, 100 mM NaCl to a concentration of 0.100 g/L using analytic techniques. Standard solution of 0, 0.010, 0.025, 0.050, 0.075 g/L were prepared by serial dilutions. Using glass test tubes and pipets, 100 μL of each standard was mixed with 300μL of concentrated sulfuric acid and vortexed for 10 sec to mix. Solutions were incubated at RT for 10 min and then placed on ice to stop the reaction. […] Analytically prepared solution of the di- and tri-saccharide scaled linearly to the calibration curve. To determine the concentration of the chitin hexasaccharide solutions used in ITC, the solutions were diluted into the dynamic range of the calibration curve (S12 Fig) and subjected to the above procedure.\nAll ITC experiments were performed on a TA Instruments low volume NanoITC with a 186uL reaction cell and a reference cell filled with degassed Milli-Q grade water. Reactions were run in a buffer containing 10mM Bis-Tris, pH 6.5, 100 mM NaCl. The reservoir solution was filled with protein solution and continuously stirred while Chitin hexasaccharide solutions titrated in 2.5μL aliquots for 19 injections, with an initial 1μL injection, for a total injection volume of 48.5μL. The carbohydrate solutions were made by dissolving the dry powder in buffer to a concentration of 20mM (confirmed using methods described above) and then diluted to the working concentration using the final buffer exchange flow through to match the buffers as closely as possible. The integrated heats, after correction for the heat of dilution were analyzed using the NanoAnalyze software from […]. An individual binding site model was used to fit the binding isotherm. All experiments were replicated a minimum of three times."}, "[5]": {"tested_on": "Cf-4 immune receptor", "experiment": "Pure protein infiltrations into tomato leaves of cv Purdue 135 (+ Cf-4), hypersensitive response", "format": "in vivo", "details": "both 5 μg/ml and 10 μg/ml, 5 dpi", "source_text": "Tomato seeds were obtained from the Tomato Genetic Resource Center (TGRC) at UC Davis. WT-CfAvr4 and mutants thereof with single point mutations at selected amino acids were produced and purified from E. coli Rosetta-gami B cells as description above. […]"}, "[6]": {"tested_on": "germlings of Trichoderma viride", "experiment": "In vitro protection assay of T. viride germlings against chitinases", "format": "cell-based", "details": "5 μM protein with chitinases and β-1,3-glucanases", "method": "The ability of the WT-CfAvr4 and of ChBD mutants to protect against chitinases was evaluated in in vitro protection assays conducted as described before. Briefly, spores of T. viride (3∙10^3) were pre-germinated overnight at room temperature in 100 μl of half-strength PDB medium in 96 well plates. The following day, 5 μM of WT-CfAvr4 or ChBD mutants were mixed with 7.5 units of Zymolyase (Zymo Research cat. no. E1004) and 0.2 units of bacterial chitinases (Sigma-Aldrich cat. no. C6137) and the mixture was added to the microtitre plate wells containing the pre-germinated spores in a final volume of 150 μl. Plates were incubated at 25°C for 6–8 h before evaluating under the microscope fungal growth and the ability of the proteins to provide protection against chitinases. Zymolase has β-1,3 glucanase and β-1,3-glucan laminaripentaohydrolase activity and is added to the mixture in order to remove the surface glucans from the fungal cell wall and thus expose the underlying chitin layer."}},
  "note": "Entries after “also recorded” stand apart in the source; their conditions may differ.",
  "data": [
    {"molecule": "WT-CfAvr4: wild-type Avr4 effector protein of Cladosporium fulvum, CBM14 chitin-binding lectin, E. coli-produced mature form Lys30-Gln115 (protein, left off: 6x His (two), N-terminal, cleaved) KAPKTQPYNPCKPQEVIDTKCMGPKDCLYPNPDSCTTYIQCVPLDEVGNAKPVVKPCPKGLQWNDNVGKKWCDYPNLSTCPVKTPQ", "values": [
      {"measurement": "HR after protein infiltration", "setting": "[1]", "value": "none of the mutants or the WT-CfAvr4 induced an HR; also recorded: None of the proteins, WT-CfAvr4 or mutants, elicited an HR"},
      {"measurement": "HR on transient co-expression with Cf-4", "setting": "[2]", "value": "strong and similar in intensity HR"},
      {"measurement": "Stability (Subtilisin assay)", "setting": "[3]", "value": "S"},
      {"measurement": "higher binding affinity for (GlcNAc)6 than PfAvr4", "setting": "[4]", "value": 10, "unit": "fold"},
      {"measurement": "Cf-4-mediated HR after protein infiltration", "setting": "[5]", "value": "strong and equal in intensity HR; also recorded: strong hypersensitive response (HR); also recorded: strong and equally in intensity necrosis"},
      {"measurement": "morphology of hyphae after chitinase treatment", "setting": "[6]", "value": "remained morphologically intact"},
      {"measurement": "protection of fungal hyphae against chitinases, fungal growth", "setting": "[6]; 6–8 h", "value": "enabled fungal growth and survival; also recorded: able to protect hyphae"}
    ]}
  ]
}
